# Measured values published in patent US7109170B2, “Region of factor IXa protease domain that interacts with factor VIIIa and methods therefor” (Saint Louis University, priority 1999, dated 2006).
# Assays:
# factor VIIIa = molecular target: T1, factor VIIIa (Homo sapiens, UniProt P00451); experiment: inhibition of Xa generation by active site-blocked (DEGR) IXa proteins, presence of phospholipid (Kd,app for VIIIa); type: biochemical
# T1 construct: purchased Dr. Leon Hoyer (American Red Cross, Rockville, Md.)
# T1 sequence (P00451 20-759 limits assumed): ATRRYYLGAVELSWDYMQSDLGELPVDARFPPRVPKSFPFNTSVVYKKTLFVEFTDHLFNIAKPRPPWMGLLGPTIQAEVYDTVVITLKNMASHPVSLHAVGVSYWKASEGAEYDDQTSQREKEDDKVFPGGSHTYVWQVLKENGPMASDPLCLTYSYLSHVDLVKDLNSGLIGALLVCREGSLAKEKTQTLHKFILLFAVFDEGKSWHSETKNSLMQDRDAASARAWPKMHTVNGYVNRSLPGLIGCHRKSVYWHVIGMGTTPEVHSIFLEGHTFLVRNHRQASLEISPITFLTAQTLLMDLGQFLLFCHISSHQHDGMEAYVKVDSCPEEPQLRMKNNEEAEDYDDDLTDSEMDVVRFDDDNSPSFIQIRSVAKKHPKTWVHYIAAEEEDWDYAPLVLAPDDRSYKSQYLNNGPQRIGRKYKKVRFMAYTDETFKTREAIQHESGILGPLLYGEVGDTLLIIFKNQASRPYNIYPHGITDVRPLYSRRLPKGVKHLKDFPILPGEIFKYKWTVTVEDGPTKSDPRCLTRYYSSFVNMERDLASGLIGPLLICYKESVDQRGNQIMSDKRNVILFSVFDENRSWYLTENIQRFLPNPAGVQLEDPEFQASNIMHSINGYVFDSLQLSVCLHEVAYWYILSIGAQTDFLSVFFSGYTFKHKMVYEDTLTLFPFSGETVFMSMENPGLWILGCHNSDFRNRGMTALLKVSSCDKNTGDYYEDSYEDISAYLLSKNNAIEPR
# T1 sequence (P00451 1668-2351 limits assumed): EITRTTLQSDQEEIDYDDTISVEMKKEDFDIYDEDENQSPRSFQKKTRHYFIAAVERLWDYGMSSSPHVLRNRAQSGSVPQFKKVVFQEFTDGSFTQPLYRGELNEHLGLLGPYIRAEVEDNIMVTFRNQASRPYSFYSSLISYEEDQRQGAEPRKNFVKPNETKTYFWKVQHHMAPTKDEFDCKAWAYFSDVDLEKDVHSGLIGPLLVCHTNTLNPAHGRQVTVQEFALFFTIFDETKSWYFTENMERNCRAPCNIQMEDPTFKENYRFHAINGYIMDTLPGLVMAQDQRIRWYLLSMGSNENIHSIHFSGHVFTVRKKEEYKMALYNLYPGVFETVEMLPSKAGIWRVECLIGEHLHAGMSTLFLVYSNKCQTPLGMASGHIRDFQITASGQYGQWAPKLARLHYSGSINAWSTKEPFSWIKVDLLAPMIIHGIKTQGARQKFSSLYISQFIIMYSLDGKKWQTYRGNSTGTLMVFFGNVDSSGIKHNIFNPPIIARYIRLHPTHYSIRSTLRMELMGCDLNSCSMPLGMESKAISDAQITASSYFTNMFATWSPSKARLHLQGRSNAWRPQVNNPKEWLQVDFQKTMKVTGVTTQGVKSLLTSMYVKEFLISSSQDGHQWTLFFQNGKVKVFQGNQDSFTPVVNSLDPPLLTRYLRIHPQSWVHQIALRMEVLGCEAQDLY
# Description: Apparent Kds of factor VIIIa binding to various active site-blocked factor IXa proteins were determined from inhibition experiments as detailed in Mathur et al., 1997, supra. […] Reactions were carried out for 2 min and the rates of factor X activation were measured as outlined above.
# Various DEGR-ck-inhibited factor IXa proteins were prepared for these experiments as follows. IXNP, IXWT, and each mutant factor IX at 200 μg/ml was activated by factor XIa (2 μg/ml) for 90 min. in TBS, pH 7.4 (0.05 M Tris, 0.15 M NaCl, pH 7.4) containing 5 mM Ca^2+.
# Enzymol. 74, 481–508 given below:
# [formula] where y is the rate of Xa formation in the presence of a given concentration of DEGR-IXa protein represented by x, a is the maximum rate of Xa formation in the absence of DEGR-IXa, and s is the slope factor. Each point was weighted equally and the data were fitted to Equation 1 using the nonlinear regression analysis program obtained from Erithacus Software (GraFit). […] To obtain the Kd,app values for the interaction of DEGR-IXa proteins with factor VIIIa, the following equation was used, as described by Cheng and Prusoff, 1973, Biochem. Pharmacol. 22, 3099–3108 and further discussed by Craig, 1993, Trends Pharmacol. Sci. 6, 68–71.
# [1] = test system: Factor IX deficient plasma; experiment: coagulant activity of XIa-activated IXa proteins; type: biochemical
substance,measurement,setting,value
IXaV331A: activated factor IX mutant V331A,Kd,"factor VIIIa; active site-blocked (DEGR) IXa proteins, 10 μM phospholipid, read-out: Kd, app for interaction with factor VIIIa, PL-plus system",0.61 ± 0.08 nM
same,fold-reduction in affinity for factor VIIIa compared with DEGR-IXaWT,factor VIIIa; presence of phospholipid,11 fold
same,coagulant activity as compared to IXaNP,[1],~6%
